For data set [1], the target named is 6×His-thioredoxin-fused ZAD domain of Zw5 (aa 1–103) (Drosophila melanogaster). The data set can be described thus: cross-linking.
The data set “cross-linking” concerns the molecule itself. Nature of the data set: cross-linking.

“6×His-thioredoxin-fused ZAD domain of Zw5 (aa 1–103) (domain or fragment)” showed a stoichiometry N in data set [1] of 2.

B1: 6×His-thioredoxin-fused ZAD domain of Grauzone (aa 1–84) (domain or fragment, Drosophila melanogaster, UniProt Q9U405 1-84, looked up)
chain: MDICRLCLRGVSGAQMCLQIFDVDSGESKVAEVLRQHFWFEVLPNDEISKVICNVCWTQVSEFHQFYVSIQEAQVIYATTSKFK
For the molecule B1, the “stoichiometry N” value in the data set “cross-linking” came out at 2.

B2: 6×His-thioredoxin-fused ZAD domain of Pita (aa 1–109) (domain or fragment, Drosophila melanogaster, UniProt Q95RQ8 1-109, looked up)
chain: MAAKLEVREAMLTEKRVCRFCLTEQKLASIFEENPRVKTTANLPLQIMAITAIEVYAGDGMPGHICLECRLLFEHCYRFKQMCKRAETLLRQYPLTGNWPSPLEKPRAP
Regarding B2, in the data set “cross-linking”, the “stoichiometry N” value was found to be 2.

B3: 6×His-thioredoxin-fused ZAD domain of ZIPIC (aa 3–81) (domain or fragment, Drosophila, UniProt Q9VAB8 3-81, looked up)
chain: CCICQFSVRVPKDIHTDTVGHPPVLISELVLQCTRGTNYVLTEESSTICKKCCEKLARYHKSIQIARKLRGEILELIHS
As to B3, the “stoichiometry N” value in “cross-linking” worked out at 2.

For orientation: stoichiometry N means the number of molecules, sites or subunits per partner or assembly.

Source of the values: publication PMC5009728 (Nucleic Acids Research, 2016).
